These results are taken from PMC4968227.

The target of this experiment is T1, PARK7, endogenous in SN4741 cells (mouse (endogenous in SN4741)), Q99LX0.
T1 chain: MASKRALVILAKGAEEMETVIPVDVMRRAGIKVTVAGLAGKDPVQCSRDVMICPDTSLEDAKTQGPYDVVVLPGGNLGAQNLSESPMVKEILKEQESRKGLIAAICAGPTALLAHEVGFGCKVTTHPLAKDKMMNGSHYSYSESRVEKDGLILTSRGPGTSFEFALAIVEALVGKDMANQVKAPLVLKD
In words: cross-linking. The conditions noted are these: remark: other sources report otherwise.

B1: PARK7, endogenous in SN4741 cells, Q99LX0 1-189 (natural protein)
chain: T1 chain
B1: the stoichiometry N (commonly a count of units in the complex or per binding partner) is 2.
